Assays:
[1] = Stability of ADA activity in plasma; format: in vitro ADME, mouse; conditions: long incubation (e.g., 24 hours) in plasma
Experimental: For therapeutic uses, such as for treatment of tumors or cancers, it is desirable to administer to the subject a dosage of ADA2 that will maintain plasma adenosine deaminase (ADA) activity for a sufficient time for therapeutic effect. […] The plasma stability of any ADA2 described herein, such as a wildtype, variant or conjugate, can be determined by measuring the changes in enzymatic activity and/or other physical properties, before and after incubation in plasma, e.g., ex vivo mammalian plasma.
Stability can be assessed in vitro or in vivo. For example, stability can be tested after exposure to plasma for a desired length of time, which can be empirically determined or selected by a skilled artisan depending on the desired length of time. For example, the incubation time can be at least 1 hour, such as at least 2, 3, 4, 5, 10, 15, 20, 24, 30, 36, 48, 60, 72 hours or more. The protein can be directly administered systemically, such as intravenously, and activity can be assessed. In other examples, the protein can be subject to appropriate incubation conditions in vitro. In one example, the stability of ADA activity of any ADA2 provided herein can be measured after incubation at 37° C., in 25% ex vivo plasma or serum, such as human or non-human plasma or serum, for example, mouse plasma. […]

[2] = system: CT26 murine primary colon carcinoma; experiment: CT26 syngeneic tumor model; set-up: species or system BALB/c mice; conditions: mouse
Experimental: Exemplary of an animal tumor model that can be used to assess the effect of cancer treatment using ADA2 provided herein is the CT26 syngeneic tumor model. This model is created by subcutaneous injection of CT26 murine primary colon carcinoma (ATCC CRL-2638) cells into syngeneic BALB/c mice. The mice are staged until the tumor is established, then the agent used for treatment, such as any ADA2 provided herein or combination therapy including ADA2 treatment, are administered. Another example of an animal tumor model of pancreatic cancer involves the generation of tumors in animals using BxPC-3 pancreatic adenocarcinoma cells (see e.g. Von Hoff et al. (2011) J. Clin. Oncol., 29:4548-54). […]
In other examples, tumor volume can be measured using an average of measurements of tumor diameter (D) obtained by caliper or ultrasound assessments. For example, tumor volume can be determined using VisualSonics Vevo 770 high-resolution ultrasound or other similar ultrasound. The volume can be determined from the formula V=D^3×π/6 (for diameter measured using calipers) or V=D^2×d×π/6 (for diameter measured using ultrasound where d is the depth or thickness). For example, caliper measurements can be made of the tumor length (l) and width (w) and tumor volume calculated as length×width^2×0.52. […] Tumor volumes can be determined by using available software (e.g., Amira 3.1 software; Mercury Computer Systems). […]

B1: ADA2: wild-type human adenosine deaminase 2, mature form SEQ ID NO:5, homodimer (protein, listed as Homo sapiens)
chain: IDETRAHLLLKEKMMRLGGRLVLNTKEELANERLMTLKIAEMKEAMRTLIFPPSMHFFQAKHLIERSQVFNILRMMPKGAALHLHDIGIVTMDWLVRNVTYRPHCHICFTPRGIMQFRFAHPTPRPSEKCSKWILLEDYRKRVQNVTEFDDSLLRNFTLVTQHPEVIYTNQNVVWSKFETIFFTISGLIHYAPVFRDYVFRSMQEFYEDNVLYMEIRARLLPVYELSGEHHDEEWSVKTYQEVAQKFVETHPEFIGIKIIYSDHRSKDVAVIAESIRMAMGLRIKFPTVVAGFDLVGHEDTGHSLHDYKEALMIPAKDGVKLPYFFHAGETDWQGTSIDRNILDALMLNTTRIGHGFALSKHPAVRTYSWKKDIPIEVCPISNQVLKLVSDLRNHPVATLMATGHPMVISSDDPAMFGAKGLSYDFYEVFMGIGGMKADLRTLKQLAMNSIKYSTLLESEKNTFMEIWKKRWDKFIADVATK
modifications: ADA2 mature protein
With B1 the stability in plasma [1] was “more stable than ADA1” and the “tumor growth in vivo” value [2] was “reduce tumor growth”.

Source: patent US9969998B2, “Compositions of adenosine deaminase-2 (ADA2), variants thereof and methods of using same” (Halozyme, Inc., priority 2014, dated 2018)
